According to US10314894B2, “Treatment of cardio-renal disease using PCSK6” (THE CLEVELAND CLINIC FOUNDATION, priority 2014, dated 2019):
Changes are numbered by the printed parent chain.

How the values were obtained:
Type in all cases: cell-based
[1] = target: T1, recombinant human corin (Homo sapiens, UniProt Q9Y5Q5); assay: PCSK1-9 plasmids transfected in HEK293 cells expressing recombinant human corin (Western analysis); details: plasmid transfected
T1 construct: expressed in transfected cells; host or cells: HEK293
T1 sequence (Q9Y5Q5 1-1042): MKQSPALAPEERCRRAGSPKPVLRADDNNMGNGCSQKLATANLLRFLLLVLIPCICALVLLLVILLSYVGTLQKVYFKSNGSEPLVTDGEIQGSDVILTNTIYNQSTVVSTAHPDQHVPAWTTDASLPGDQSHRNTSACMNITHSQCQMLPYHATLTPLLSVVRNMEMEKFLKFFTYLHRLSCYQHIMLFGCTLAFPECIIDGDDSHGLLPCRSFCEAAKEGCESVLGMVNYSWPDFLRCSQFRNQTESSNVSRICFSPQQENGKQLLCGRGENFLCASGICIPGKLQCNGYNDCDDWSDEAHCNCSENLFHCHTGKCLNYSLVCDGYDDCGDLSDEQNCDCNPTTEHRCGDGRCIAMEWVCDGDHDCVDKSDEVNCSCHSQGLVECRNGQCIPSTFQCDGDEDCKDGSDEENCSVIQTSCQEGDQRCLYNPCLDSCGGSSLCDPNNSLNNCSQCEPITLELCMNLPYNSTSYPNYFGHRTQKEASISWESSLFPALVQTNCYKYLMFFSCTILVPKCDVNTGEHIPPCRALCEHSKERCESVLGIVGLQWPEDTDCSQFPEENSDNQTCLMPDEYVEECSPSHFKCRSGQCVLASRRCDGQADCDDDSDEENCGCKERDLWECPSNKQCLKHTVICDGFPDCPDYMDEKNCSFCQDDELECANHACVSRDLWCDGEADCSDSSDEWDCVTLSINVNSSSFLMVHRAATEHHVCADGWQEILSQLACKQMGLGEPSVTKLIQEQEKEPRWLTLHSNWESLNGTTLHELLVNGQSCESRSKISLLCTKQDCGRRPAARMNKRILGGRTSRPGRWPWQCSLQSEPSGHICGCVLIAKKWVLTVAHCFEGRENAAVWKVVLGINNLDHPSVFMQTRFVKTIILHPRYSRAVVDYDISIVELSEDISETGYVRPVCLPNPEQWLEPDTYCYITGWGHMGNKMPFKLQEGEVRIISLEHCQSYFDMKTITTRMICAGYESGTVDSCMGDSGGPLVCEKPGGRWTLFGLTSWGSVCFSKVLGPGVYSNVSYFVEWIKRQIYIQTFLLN
Description: The PCSK family has 9 members. PCSK1-9 plasmids were transfected in HEK293 cells expressing recombinant human corin. […] By RT-PCR, PCSK6 mRNA was detected in HEK293 and HL-1 cells and in mouse and human hearts where corin is normally expressed. Yan et al., J Biol Chem 274, 14926-14935 (1999). The results were consistent with previous reports of PCSK6 expression in atrial and ventricular cardiomyocytes. Beaubien et al., Cell Tissue Res 279, 539-549 (1995).
(§1) Plasmids expressing human corin WT and mutants R801A, S985A, T555I, Q568P, T555I/Q568P, K317E, S472G and R539C were reported previously. Dong, N. et al., J Biol Chem 289, 17909-17916 (2014); Knappe et al., J Biol Chem 278, 52363-52370 (2003); Wu et al., J Biol Chem 277, 16900-16905. (2002). Plasmids expressing human PCSK1-9 were made by cloning respective cDNAs into pcNDA3.1 vector. Recombinant corin and PCSK proteins encoded by these plasmids contained a C-terminal V5 or flag tag for protein detection in Western blotting.
HEK293 and HL-1 cells were transfected with corin or PCSK6 expression plasmids. After 48-72 h, cells were lysed in a buffer containing 25 mM Tris-HCl, pH 7.4, 150 mM NaCl, 1 mM EDTA, 1% (v/v) NP-40, and 1% (v/v) protease inhibitor cocktail. […] Percentage of corin activation (corin-p vs. corin fragments) was quantified by densitometric analysis of Western blots.

[2] = target: T2, corin WT (Homo sapiens, UniProt Q9Y5Q5); assay: PCSK6-mediated corin activation in HEK293 cells, corin WT; details: Western
T2 construct: expressed in transfected cells; host or cells: HEK293
T2 sequence (Q9Y5Q5 1-1042): T1 sequence (Q9Y5Q5 1-1042)
Description: as §1
(§2) HEK293 and HL-1 cells were transfected with corin or PCSK6 expression plasmids. After 48-72 h, cells were lysed in a buffer containing 25 mM Tris-HCl, pH 7.4, 150 mM NaCl, 1 mM EDTA, 1% (v/v) NP-40, and 1% (v/v) protease inhibitor cocktail. Recombinant corin and PCSK6 proteins were immunoprecipitated with an anti-V5 or anti-flag antibody. Western blotting was carried out to analyze corin expression and activation or PCSK6 expression with or without reducing agents. Percentage of corin activation (corin-p vs. corin fragments) was quantified by densitometric analysis of Western blots.

[3] = target: T3, corin mutant R539C (Homo sapiens, UniProt Q9Y5Q5, R539C); assay: PCSK6-mediated corin activation in HEK293 cells, corin mutant R539C; details: Western, densitometry
T3 construct: expressed in transfected cells; host or cells: HEK293
T3 sequence (Q9Y5Q5 1-1042 R539C): T1 sequence (Q9Y5Q5 1-1042) with R539C
Description: as §1, §2

B1: proprotein convertase subtilisin/kexin-6 (protein, listed as Homo sapiens)
chain: MPPRAPPAPGPRPPPRAAAATDTAAGAGGAGGAGGAGGPGFRPLAPRPWRWLLLLALPAACSAPPPRPVYTNHWAVQVLGGPAEADRVAAAHGYLNLGQIGNLEDYYHFYHSKTFKRSTLSSRGPHTFLRMDPQVKWLQQQEVKRRVKRQVRSDPQALYFNDPIWSNMWYLHCGDKNSRCRSEMNVQAAWKRGYTGKNVVVTILDDGIERNHPDLAPNYDSYASYDVNGNDYDPSPRYDASNENKHGTRCAGEVAASANNSYCIVGIAYNAKIGGIRMLDGDVTDVVEAKSLGIRPNYIDIYSASWGPDDDGKTVDGPGRLAKQAFEYGIKKGRQGLGSIFVWASGNGGREGDYCSCDGYTNSIYTISVSSATENGYKPWYLEECASTLATTYSSGAFYERKIVTTDLRQRCTDGHTGTSVSAPMVAGIIALALEANSQLTWRDVQHLLVKTSRPAHLKASDWKVNGAGHKVSHFYGFGLVDAEALVVEAKKWTAVPSQHMCVAASDKRPRSIPLVQVLRTTALTSACAEHSDQRVVYLEHVVVRTSISHPRRGDLQIYLVSPSGTKSQLLAKRLLDLSNEGFTNWEFMTVHCWGEKAEGQWTLEIQDLPSQVRNPEKQGKLKEWSLILYGTAEHPYHTFSAHQSRSRMLELSAPELEPPKAALSPSQVEVPEDEEDYTAQSTPGSANILQTSVCHPECGDKGCDGPNADQCLNCVHFSLGSVKTSRKCVSVCPLGYFGDTAARRCRRCHKGCETCSSRAATQCLSCRRGFYHHQEMNTCVTLCPAGFYADESQKNCLKCHPSCKKCVDEPEKCTVCKEGFSLARGSCIPDCEPGTYFDSELIRCGECHHTCGTCVGPGREECIHCAKNFHFHDWKCVPACGEGFYPEEMPGLPHKVCRRCDENCLSCAGSSRNCSRCKTGFTQLGTSCITNHTCSNADETFCEMVKSNRLCERKLFIQFCCRTCLLAG
modifications: C-terminal FLAG tag
corin activation on PCSK overexpression (loss of corin zymogen band) [1]: enhanced corin activation
PCSK6-mediated activation cleavage [2]: detected
reduction in PCSK6-mediated corin activation compared with WT corin [3]: 62%
